Here are results for 4 sequences from the supplement of paper PMC5998384.

In data set [1] the test system is HeLa Kyoto. As to the kind of experiment: solubility in G1/S (NP-40 vs SDS abundance) (log2 ratio); higher = more soluble. The following applies: cell cycle stage: G1/S.
For data set [2], the system named is HeLa Kyoto. Description: melting temperature (median over replicates), in situ; higher = more thermally stable.
For data set [3], the system named is HeLa Kyoto. Description: solubility change mitosis vs G1/S (difference of NP-40 vs SDS log2 ratios) (log2 ratio difference); higher = more soluble in mitosis.
The test system of data set [4] is HeLa Kyoto. As to the kind of experiment: thermal stability score vs G1/S (z-score of summed log2 fold changes over temperatures); higher = more thermally stable than in G1/S.
The mark [5] stands for this setting: cell cycle stage: early G1 (4.5 h after nocodazole release).
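Throughout, for melting temperature (median over replicates), in situ: HeLa Kyoto cells synchronized by double thymidine or nocodazole block, proteins quantified by TMT10plex mass spectrometry, three independent biological replicates.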
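Throughout, for solubility change mitosis vs G1/S (difference of NP-40 vs SDS log2 ratios): synchronized HeLa Kyoto cells (double thymidine block for G1/S, nocodazole release for mitosis), protein amounts in NP-40 versus SDS lysates quantified by mass spectrometry, three biological replicates.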
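Throughout, for solubility in G1/S (NP-40 vs SDS abundance): HeLa Kyoto cells arrested at G1/S by double thymidine block, proteins quantified by TMT10plex mass spectrometry in mild NP-40 versus SDS extracts, three biological replicates.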
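Throughout, for thermal stability score vs G1/S (z-score of summed log2 fold changes over temperatures): synchronized HeLa Kyoto cells, proteins quantified by TMT10plex mass spectrometry, three biological replicates, mitosis taken 0.5 h after nocodazole release, G1/S directly after double thymidine block.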

For “MMADGAAAGAGGSPSLRELRARMVAAANEIAKERRKQDVVNRVATHSSNIRSTFKPVIDGSMLKNDIKQRLARERREEKRRQQDANKETQLLEKERKTKLQYEKQMEERQRKLKERKEKEEQRRIAAEEKRHQKDEAQKEKFTAILYRTLERRRLADDYQQKRWSWGGSAMANSESKTANKRSASTEKLEQGTSALIRQMPLSSAGLQNSVAKRKTDKERSSSLNRRDSNLHSSTDKEQAERKPRVTGVTNYVMQYVTVPLRKCTSDELRAVMFPMSTMKIPPQTKVEESPLEKVETPPKASVDAPPQVNVEVFCNTSMEASPKAGVGMAPEVSTDSFPVVSVDVSPVVSTYDSEMSMDASPELSIEALPKVDLETVPKVSIVASPEASLEAPPEVSLEALPEVSVEAAPEGSLEAPPKGSAEVAPKESVKGSPKESMEASPEAMVKASPKTSLEASMEASPKAKARDAPKKSEMDKQALIPIAKKRLSSYTECYKWSSSPENACGLPSPISTNRQIQKNCPPSPLPLISKQSPQTSFPYKIMPIQHTLSVQSASSTVKKKKETVSKTTNRCEALSQRHMIYEESGNKSTAGIMNAEAATKILTELRRLAREQREKEEEERQREEMQQRVIKKSKDMAKEAVGGQAEDHLKLKDGQQQNETKKKKGWLDQEDQEAPLQKGDAKIKAQEEADKRKKEHERIMLQNLQERLERKKRIEEIMKRTRKTDVNASKVTETSSHDIYEEAEADNEESDKDSLNEMFPSAILNGTGSPTKFKMPFNNAKKMTHKLVFLEDGTSQVRKEPKTYFNGDLKNFRQKSMKDTSIQEVVSRPSSKRMTSHTTKTRKADETNTTSRSSAQTKSEGFHDILPKSSDTFRQ [MAP7D3]”, the “solubility in G1/S (log2)” value in the data set with HeLa Kyoto [1] is -0.211. Moreover, the results for the melting temperature with HeLa Kyoto [2] (cell cycle stage: G1/S) and with HeLa Kyoto [2] (cell cycle stage: mitosis) were 50.4 °C and 52.8 °C, respectively. Also, the “solubility change mitosis (log2)” value with HeLa Kyoto [3] came to 0.189. The thermal stability score in the data set with HeLa Kyoto [4] (setting [5]) is 2.41; in the data set with HeLa Kyoto [4] (cell cycle stage: mitosis), 6.63.
As for “MRQKHYLEAAARGLHDSCPGQARYLLWAYTSSHDDKSTFEETCPYCFQLLVLDNSRVRLKPKARLTPKIQKLLNREARNYTLSFKEAKMVKKFKDSKSVLLITCKTCNRTVKHHGKSRSFVSTLKSNPATPTSKLSLKTPERRTANPNHDMSGSKGKSPASVFRTPTSGQSVSTCSSKNTSKTKKHFSQLKMLLSQNESQKIPKVDFRNFLSSLKGGLLK [C18ORF21]”, in the data set with HeLa Kyoto [1], the “solubility in G1/S (log2)” value is -0.722. Moreover, the melting temperature with HeLa Kyoto [2] (cell cycle stage: mitosis) was 46.8 °C. The “solubility change mitosis (log2)” value in the data set with HeLa Kyoto [3] amounted to 2.72. Besides, the thermal stability score in the data set on HeLa Kyoto [4] (setting [5]) was -0.862; in the data set on HeLa Kyoto [4] (cell cycle stage: mitosis), -0.417.
Turning to “MDVLAEANGTFALNLLKTLGKDNSKNVFFSPMSMSCALAMVYMGAKGNTAAQMAQILSFNKSGGGGDIHQGFQSLLTEVNKTGTQYLLRMANRLFGEKSCDFLSSFRDSCQKFYQAEMEELDFISAVEKSRKHINTWVAEKTEGKIAELLSPGSVDPLTRLVLVNAVYFRGNWDEQFDKENTEERLFKVSKNEEKPVQMMFKQSTFKKTYIGEIFTQILVLPYVGKELNMIIMLPDETTDLRTVEKELTYEKFVEWTRLDMMDEEEVEVSLPRFKLEESYDMESVLRNLGMTDAFELGKADFSGMSQTDLSLSKVVHKSFVEVNEEGTEAAAATAAIMMMRCARFVPRFCADHPFLFFIQHSKTNGILFCGRFSSP [SERPINB6]”, the “solubility in G1/S (log2)” value in the data set on HeLa Kyoto [1] amounted to 0.174. Also, the melting temperature in the data set with HeLa Kyoto [2] (cell cycle stage: G1/S) was 55.8 °C; with HeLa Kyoto [2] (cell cycle stage: mitosis), 56.1 °C. In the data set with HeLa Kyoto [3], the “solubility change mitosis (log2)” value is -0.136. Also, the thermal stability score was -1.49 with HeLa Kyoto [4] (setting [5]) and -2.35 in the data set on HeLa Kyoto [4] (cell cycle stage: mitosis).
Turning to “MSRLKRIAGQDLRAGFKAGGRDCGTSVPQGLLKAARKSGQLNLSGRNLSEVPQCVWRINVDIPEEANQNLSFGATERWWEQTDLTKLIISNNKLQSLTDDLRLLPALTVLDIHDNQLTSLPSAIRELENLQKLNVSHNKLKILPEEITNLRNLKCLYLQHNELTCISEGFEQLSNLEDLDLSNNHLTTVPASFSSLSSLVRLNLSSNELKSLPAEINRMKRLKHLDCNSNLLETIPPELAGMESLELLYLRRNKLRFLPEFPSCSLLKELHVGENQIEMLEAEHLKHLNSILVLDLRDNKLKSVPDEIILLRSLERLDLSNNDISSLPYSLGNLHLKFLALEGNPLRTIRREIISKGTQEVLKYLRSKIKDDGPSQSESATETAMTLPSESRVNIHAIITLKILDYSDKQATLIPDEVFDAVKSNIVTSINFSKNQLCEIPKRMVELKEMVSDVDLSFNKLSFISLELCVLQKLTFLDLRNNFLNSLPEEMESLVRLQTINLSFNRFKMLPEVLYRIFTLETILISNNQVGSVDPQKMKMMENLTTLDLQNNDLLQIPPELGNCVNLRTLLLDGNPFRVPRAAILMKGTAAILEYLRDRIPT [LRRC40]”, the “solubility in G1/S (log2)” value with HeLa Kyoto [1] is 0.322. Besides, the melting temperature with HeLa Kyoto [2] (cell cycle stage: G1/S) and in the data set on HeLa Kyoto [2] (cell cycle stage: mitosis) was 49.2 °C each time. The “solubility change mitosis (log2)” value with HeLa Kyoto [3] was -0.167. The values for the thermal stability score with HeLa Kyoto [4] (setting [5]) and with HeLa Kyoto [4] (cell cycle stage: mitosis) were 0.285 and 1.77, respectively.
